# Test results taken from paper PMC3262836.
# Biological target: Archeoglobus fulgidus HypB (A. fulgidus)
# Assay: SEC-MALS; SEC/LS, Superdex-75 HR10/30, 100 uL at 3 mg/mL, with 1 mM GMPPNP (GTP analog), 50 mM Tris pH 7.5, 0.1 M NaCl, 5 mM MgCl2, 1 mM TCEP, room temperature; monomer to dimer
substance,measurement,value
Archeoglobus fulgidus HypB (natural protein),stoichiometry N,2
